Reference: US20250250360A1 (CCBIOTECH, published 2025)

Target: T1, sulfatase 1 (SULF1) antigen
T1 construct: also called antigen peptide
T1 peptide: CNPRPKNLDVGNKDGGSYD
Test: indirect ELISA, antigen coated on plate, HRP-labeled secondary antibody, A450 nm
Excerpt: This embodiment is directed to two antibodies (anti-GALNS specific antibody and anti-SULF1 specific antibody) and analyzes their specificity to the target proteins under different concentrations of antigen. The indirect ELISA detection method was used to conduct antibody specificity analysis, compare the specificity performance of antibodies to different concentrations of antigens, and BSA was used as the background control group for evaluation. The antigen was coated on a 96-well ELISA plate, the test antibody and the HRP-labeled secondary antibody were added for reaction, and the absorbance value was measured using a 450 nm wavelength microplate reader.

binding result: binds
B1: anti-sulfatase 1 (SULF1) specific antibody (antibody, V domains shown)
VH: EVKLQESGAELVKPGASVKMSCKASGYTFTSYWMHWVKQRPGQGLEWIGTIDPSDSYTSYNQKFKGKATLTVDTSSSTAYMQLSSLTSEDSAVYYCTRGEYGNAMDYWGQGTSVTVSS
VL: DIVLTQTPSYLAASPGETITINCRASKSISKYLAWYQEKPGKTNKLLIYSGSTLQSGIPSRFSGSGSGTDFTLTISSLEPEDFAMYYCQQHNEYPYTFGGGTKLEIKR
notes: also called anti-SULF1 specific antibody; anti-Sulf1 specific antibody
